Assay [1] deals with T1, Trop-2 (human, UniProt P09758 27-323).
T1 sequence (looked up): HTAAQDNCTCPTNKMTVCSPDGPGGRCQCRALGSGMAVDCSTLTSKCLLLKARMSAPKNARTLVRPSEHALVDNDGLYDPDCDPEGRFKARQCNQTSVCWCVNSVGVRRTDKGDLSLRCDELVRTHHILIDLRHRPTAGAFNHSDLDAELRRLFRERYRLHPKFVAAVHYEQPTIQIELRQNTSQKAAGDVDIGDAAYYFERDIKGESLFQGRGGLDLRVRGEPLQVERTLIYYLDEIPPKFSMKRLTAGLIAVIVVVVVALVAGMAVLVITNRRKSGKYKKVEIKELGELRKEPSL
The assay can be described thus: cell-based or functional assay.

For the next assay, the target named is T2, mouse CD3 (mouse, UniProt P22646 22-108).
T2 sequence (looked up): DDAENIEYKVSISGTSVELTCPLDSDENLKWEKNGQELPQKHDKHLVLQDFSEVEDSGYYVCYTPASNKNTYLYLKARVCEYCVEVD
The assay can be described thus: not described (data not shown).

The next assay addresses T3, mouse Trop-2 (mouse, UniProt Q8BGV3 25-270, limits assumed).
T3 sequence (looked up): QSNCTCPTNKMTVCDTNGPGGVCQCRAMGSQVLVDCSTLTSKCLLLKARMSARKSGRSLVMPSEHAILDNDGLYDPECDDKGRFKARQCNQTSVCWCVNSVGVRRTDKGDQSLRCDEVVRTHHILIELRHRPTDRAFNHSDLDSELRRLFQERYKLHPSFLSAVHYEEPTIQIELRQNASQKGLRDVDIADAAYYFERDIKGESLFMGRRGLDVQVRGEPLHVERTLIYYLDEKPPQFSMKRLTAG
Briefly: not described (data not shown).

Assay [2] deals with T1, Trop-2. Briefly: cell-based or functional assay. This is another data set of the same source.
Assay [3] addresses T1, Trop-2. The assay can be described thus: assay not described; specificity EGP-1 per Table 11.
The target in assay [4] is T1, Trop-2. The assay is described as above. This is another data set of the same source.

Where two headings read alike, the source gives them in different places.

B1: (E1)-3s (bispecific antibody)
scFv: not shown
heavy (part 1 of 2): QVQLQQSGSELKKPGASVKVSCKASGYTFTNYGMNWVKQAPGQGLKWMGWINTYTGEPTYTDDFKGRFAFSLDTSVSTAYLQISSLKADDTAVYFCARGGFGSSYWYFDVWGQGSLVTVSS
heavy (part 2 of 2): not shown
light: DIQLTQSPSSLSASVGDRVSITCKASQDVSIAVAWYQQKPGKAPKLLIYSASYRYTGVPDRFSGSGSGTDFTLTISSLQPEDFAVYYCQQHYITPLTFGAGTKVEIK
notes: also called TROP2-targeting bsAb; anti-human Trop-2 x anti-human CD3 bispecific antibody; not shown: human CH1, hinge residues and Gly/Ser linker; human kappa constant domain
On to B1, for which, in the assay with Trop-2 [1], the “EC50, T-cell lysis of NCI-N87 cells, very weak donor T cells” value stood at 39 pM; the “EC50, T-cell lysis of NCI-N87 cells, very weak donor T cells, with peginterferonalfa-2a” value is 1.4 pM; the “IC50, T-cell killing of BxPC3 cells” value came out at 0.4 pM; the “IC50, T-cell lysis of NCI-N87 cells, donor of very active T cells” value came out at 0.37 pM. Besides, in the assay with Trop-2 [1], the “IC50, T-cell lysis of NCI-N87 cells, with 0.1 nM 20*-2b” value stood at 0.05 pM; the “IC50, T-cell lysis of NCI-N87 cells, with 0.1 nM peginterferonalfa-2a” value amounted to 0.14 pM; the “IC50, T-cell mediated lysis of Capan-1 cells” value was determined as 29 pM; the “IC50, T-cell mediated lysis of NCI-N87 cells” value stood at 0.85 pM. In addition, the binding result with mouse CD3 is “no binding”. Besides, the binding result in the assay with mouse Trop-2 was “no binding”. Further, in the assay with Trop-2 [2], the “IC50, T cell redirected killing of BxPC3, Donor 1” value was 1.06 pM; the “IC50, T cell redirected killing of BxPC3, Donor 2” value was 0.56 pM; the “IC50, T cell redirected killing of BxPC3, Donor 3” value is 0.32 pM; the “IC50, T cell redirected killing of Capan-1, Donor 1” value was determined as 35.6 pM. In addition, in the assay with Trop-2 [2], the “IC50, T cell redirected killing of Capan-1, Donor 2” value was 248 pM; the “IC50, T cell redirected killing of Capan-1, Donor 4” value came out at 8.51 pM; the “IC50, T cell redirected killing of NCI-N87, Donor 1” value amounted to 6.76 pM; the “IC50, T cell redirected killing of NCI-N87, Donor 2” value came out at 34 pM.

B2: C-AD2-IgG-hRS7 (antibody)
heavy (part 1 of 2): B1 heavy (part 1 of 2)
heavy (part 2 of 2): CGQIEYLAKQIVDNAIQQAGC
light: B1 light
notes: not shown: IgG heavy chain constant region and linker; kappa constant domain
Turning to B2, the binding result with Trop-2 [3] is “binds”.

B3: C-DDD2-Fab-hRS7 (Fab)
heavy (part 1 of 2): B1 heavy (part 1 of 2)
heavy (part 2 of 2): not shown
light: B1 light
notes: also called CH1-DDD2-Fab-hRS7; not shown: CH1, hinge residues and linker; kappa constant domain
With B3, the binding result in the assay with Trop-2 [4] is reported as “binds”.

For the origin of these results see EP3107577B1 (IBC Pharmaceuticals, Inc., dated 2024).
